Assay results published in publication PMC11052181, “The Post-Transcriptional Regulatory Protein CsrA Amplifies Its Targetome through Direct Interactions with Stress-Response Regulatory Hubs: The EvgA and AcnA Cases”.

Experiments:
Settings in all cases: protein: recombinant; chain copies: 2; label: 5'-32P
[1] = target: T1, CsrA (Escherichia coli, UniProt P69913 1-61); assay: EMSA; excess yeast total RNA; 0.5 nM 32P-RNA, 0-300 nM CsrA, 30 min, excess yeast total RNA; 10% native PAGE, 0.5x TBE, 4 C, 170 V; binding buffer, pH and temperature not stated (as in refs)
[2] = target: T1, CsrA; assay: as above; remark: listed apart in the source
[3] = target: T1, CsrA; assay: EMSA; excess yeast total RNA; reduced curve amplitude; 0.5 nM 32P-RNA, 0-300 nM CsrA, 30 min, excess yeast total RNA; 10% native PAGE, 0.5x TBE, 4 C, 170 V; binding buffer, pH and temperature not stated (as in refs)
[4] = target: T1, CsrA; assay: EMSA; excess yeast total RNA; 0.5 nM 32P-RNA, 0-300 nM CsrA, 30 min, excess yeast total RNA; 10% native PAGE, 0.5x TBE, 4 C, 170 V; binding buffer, pH and temperature not stated (as in refs); remark: listed apart in the source

T1 sequence (P69913 whole entry): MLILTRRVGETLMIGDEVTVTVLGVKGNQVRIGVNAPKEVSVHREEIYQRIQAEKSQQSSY

Binder	binding signal [2]	binding signal [4]	further results
evgA leader WT (T7-evgA-WT) (structured_RNA) RNA: GGGAUAAUUACUUGUCGAAUUAUCUUAAAGGAAGCUCAGAUUUUCUUAUUUUUAUUGAGAAAAUGAGAUGACGCCUUAUGUCUGUAUUACUACAGGGAGAAGGGAGAUGCUUCAUUGCAAAGGGAAUAAUCUAUGAACGCAAUAAUUAUUGAUGACCAUCCUCUUGCUAUCGCAGCAAUUCGUAAUUUAUUGAUCAAAAACGAUAUUGAAAUCUUAGCAGAGUUGACUGAAG			Kd [1]: ~0.0837 µM
evgA all pred. sites mutant (PBS-I + PBS-II) (structured_RNA) RNA: GGGAUAAUUACUUGUCGAAUUUUCGUAAACGAAGCUCAGAUUUUCUUAUUUUUAUUGAGAAAAUAAGAUCACGCCUUAUGUCUGUAUUACUACAGGGAGAAGGGAGAUGCUUCAUUGCAAAGGGAAUAAUCUAUGAACCCUAUAAUUAUUGAUGACCAUCCUCUUGCUAUCGCAGCAAUUCGUAAUUUAUUGAUCAAAAACGAUAUUGAAAUCUUAGCAGAGUUGACUGAAG	~1.2 fold increase in Kd vs WT		
evgA GGA2 mutant (GGA to AGA) (structured_RNA) RNA: GGGAUAAUUACUUGUCGAAUUAUCUUAAAGGAAGCUCAGAUUUUCUUAUUUUUAUUGAGAAAAUGAGAUGACGCCUUAUGUCUGUAUUACUACAGAGAGAAGGGAGAUGCUUCAUUGCAAAGGGAAUAAUCUAUGAACGCAAUAAUUAUUGAUGACCAUCCUCUUGCUAUCGCAGCAAUUCGUAAUUUAUUGAUCAAAAACGAUAUUGAAAUCUUAGCAGAGUUGACUGAAG	~1.6 fold increase in Kd vs WT		
evgA no GGAs mutant (structured_RNA) RNA: GGGAUAAUUACUUGUCGAAUUAUCGUAAACGAAGCUCAGAUUUUCUUAUUUUUAUUGAGAAAAUGAGAUGACGGCUUAUGUCUGUAUUACUACAGAGAGAAGCGAGAUGCUUCAUUGCAAAAGGGGUAAUCUAUGAACGCAAUAAUUAUUGAUGACCAUCCUCUUGCUAUCGCAGCAAUUCGUAAUUUAUUGAUCAAAAACGAUAUUGAAAUCUUAGCAGAGUUGACUGAAG			binding signal [3]: ~2.8 fold increase in Kd vs WT
evgA GGA4 mutant (AGGGAA to AAGGGG) (structured_RNA) RNA: GGGAUAAUUACUUGUCGAAUUAUCUUAAAGGAAGCUCAGAUUUUCUUAUUUUUAUUGAGAAAAUGAGAUGACGCCUUAUGUCUGUAUUACUACAGGGAGAAGGGAGAUGCUUCAUUGCAAAAGGGGUAAUCUAUGAACGCAAUAAUUAUUGAUGACCAUCCUCUUGCUAUCGCAGCAAUUCGUAAUUUAUUGAUCAAAAACGAUAUUGAAAUCUUAGCAGAGUUGACUGAAG	~2 fold increase in Kd vs WT		
acnA leader WT (T7-acnA-WT) (structured_RNA) RNA: GGGAUAAUUCACCCUGAAGAGAAUCAGGGCUUCGCAACCCUGUCAUUAAGGAGGAGCUAUGUCGUCAACCCUACGAGAAGCCAGUAAGGACACGUUGCAGGCCAAAGAUAAAACUUACCACUACUACAGCCUGCCGCUUGCUGCUAAAUCACUGGGCG			Kd [1]: ~0.0909 µM
acnA PBS-III mutant (mut3, AAAGAU to UAACUU) (structured_RNA) RNA: GGGAUAAUUCACCCUGAAGAGAAUCAGGGCUUCGCAACCCUGUCAUUAAGGAGGAGCUAUGUCGUCAACCCUACGAGAAGCCAGUAAGGACACGUUGCAGGCCUAACUUAAAACUUACCACUACUACAGCCUGCCGCUUGCUGCUAAAUCACUGGGCG		~1.6 fold increase in Kd vs WT	
acnA PBS-I & PBS-III double mutant (dm-1&3) (structured_RNA) RNA: GGGAUAAUUCACCCUGAAGAGAAUCAGGGCUUCGCAACCCUGUCAUUAACCACCAGCUAUGUGGUCAACCCUACGAGAAGCCAGUAAGGACACGUUGCAGGCCUAACUUAAAACUUACCACUACUACAGCCUGCCGCUUGCUGCUAAAUCACUGGGCG		~2 fold increase in Kd vs WT	
acnA PBS-I mutant (mut1, GGAGGA to CCACCA) (structured_RNA) RNA: GGGAUAAUUCACCCUGAAGAGAAUCAGGGCUUCGCAACCCUGUCAUUAACCACCAGCUAUGUGGUCAACCCUACGAGAAGCCAGUAAGGACACGUUGCAGGCCAAAGAUAAAACUUACCACUACUACAGCCUGCCGCUUGCUGCUAAAUCACUGGGCG		~1.7 fold increase in Kd vs WT	
